B1: TRAF3IP2 (parent)
chain: YGHDYPRAAYQQVIQPALPGQPLP
B2: KRT33B (parent)
chain: YQSYFKTIEELQQKILCSKSENAR

Variants of: B1
Assay: protein stability index of a GFP-peptide fusion (GPS, HEK-293T) (PSI 1-6); higher = more stable
Details: c terminus: a fixed tail appended
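Further: lentivirally expressed fusions sorted by FACS into six bins by GFP to DsRed ratio, PSI derived from sequencing read proportions per bin multiplied by bin number.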

Which protein stability index does the source give for YGHDYPRAAYQQVIQPALPGQPLG [P24G] here?
The protein stability index was 2.12.

Which protein stability index does the source give for YGHDYPRAAYQQVIQPALPGQPLH [P24H] here?
The protein stability index was 1.83.

For YGHDYPRAAYQQVIQPALPGQPLI [P24I], which protein stability index is on record?
The protein stability index was 1.78.

With YGHDYPRAAYQQVIQPALPGQPLK [P24K] as the variant, how does the protein stability index read?
Its protein stability index is 2.47.

Which protein stability index does the source give for YGHDYPRAAYQQVIQPALPGQPLL [P24L] here?
The protein stability index was 2.84.

With YGHDYPRAAYQQVIQPALPGQPLM [P24M] as the variant, how does the protein stability index read?
The protein stability index was 2.07.

For YGHDYPRAAYQQVIQPALPGQPLN [P24N], which protein stability index is on record?
The protein stability index was 2.14.

Which protein stability index does the source give for YGHDYPRAAYQQVIQPALPGQPLQ [P24Q] here?
Its protein stability index is 1.76.

For YGHDYPRAAYQQVIQPALPGQPLR [P24R], which protein stability index is on record?
The protein stability index was 1.89.

For YGHDYPRAAYQQVIQPALPGQPLS [P24S], which protein stability index is on record?
Its protein stability index is 1.43.

Which protein stability index does the source give for YGHDYPRAAYQQVIQPALPGQPLT [P24T] here?
Its protein stability index is 2.59.

For YGHDYPRAAYQQVIQPALPGQPLV [P24V], which protein stability index is on record?
Its protein stability index is 2.09.

For YGHDYPRAAYQQVIQPALPGQPLW [P24W], which protein stability index is on record?
The protein stability index was 2.3.

For YGHDYPRAAYQQVIQPALPGQPLY [P24Y], which protein stability index is on record?
The protein stability index was 1.6.

Variants of: B2
Assay: as above
Details: c terminus: a fixed tail appended

With AQSYFKTIEELQQKILCSKSENAR [Y1A] as the variant, how does the protein stability index read?
The protein stability index was 3.35.

Which protein stability index does the source give for CQSYFKTIEELQQKILCSKSENAR [Y1C] here?
Its protein stability index is 2.69.

Which protein stability index does the source give for DQSYFKTIEELQQKILCSKSENAR [Y1D] here?
Its protein stability index is 4.28.

Which protein stability index does the source give for EQSYFKTIEELQQKILCSKSENAR [Y1E] here?
Its protein stability index is 3.49.

With FQSYFKTIEELQQKILCSKSENAR [Y1F] as the variant, how does the protein stability index read?
The protein stability index was 1.93.

For GQSYFKTIEELQQKILCSKSENAR [Y1G], which protein stability index is on record?
Its protein stability index is 3.08.

Which protein stability index does the source give for HQSYFKTIEELQQKILCSKSENAR [Y1H] here?
Its protein stability index is 3.04.

Which protein stability index does the source give for IQSYFKTIEELQQKILCSKSENAR [Y1I] here?
The protein stability index was 2.2.

For KQSYFKTIEELQQKILCSKSENAR [Y1K], which protein stability index is on record?
Its protein stability index is 2.88.

For LQSYFKTIEELQQKILCSKSENAR [Y1L], which protein stability index is on record?
The protein stability index was 1.89.

Which protein stability index does the source give for MQSYFKTIEELQQKILCSKSENAR [Y1M] here?
The protein stability index was 3.08.

For NQSYFKTIEELQQKILCSKSENAR [Y1N], which protein stability index is on record?
The protein stability index was 3.72.

Which protein stability index does the source give for PQSYFKTIEELQQKILCSKSENAR [Y1P] here?
Its protein stability index is 3.84.

Which protein stability index does the source give for QQSYFKTIEELQQKILCSKSENAR [Y1Q] here?
The protein stability index was 3.32.

Which protein stability index does the source give for RQSYFKTIEELQQKILCSKSENAR [Y1R] here?
Its protein stability index is 3.15.

With SQSYFKTIEELQQKILCSKSENAR [Y1S] as the variant, how does the protein stability index read?
The protein stability index was 3.62.

Which protein stability index does the source give for TQSYFKTIEELQQKILCSKSENAR [Y1T] here?
Its protein stability index is 3.28.

With VQSYFKTIEELQQKILCSKSENAR [Y1V] as the variant, how does the protein stability index read?
Its protein stability index is 2.68.

For WQSYFKTIEELQQKILCSKSENAR [Y1W], which protein stability index is on record?
Its protein stability index is 2.98.

With YASYFKTIEELQQKILCSKSENAR [Q2A] as the variant, how does the protein stability index read?
Its protein stability index is 2.54.

Which protein stability index does the source give for YCSYFKTIEELQQKILCSKSENAR [Q2C] here?
Its protein stability index is 1.52.

Which protein stability index does the source give for YDSYFKTIEELQQKILCSKSENAR [Q2D] here?
The protein stability index was 2.98.

Which protein stability index does the source give for YESYFKTIEELQQKILCSKSENAR [Q2E] here?
Its protein stability index is 3.37.

Which protein stability index does the source give for YFSYFKTIEELQQKILCSKSENAR [Q2F] here?
Its protein stability index is 2.5.

For YGSYFKTIEELQQKILCSKSENAR [Q2G], which protein stability index is on record?
Its protein stability index is 2.14.

With YHSYFKTIEELQQKILCSKSENAR [Q2H] as the variant, how does the protein stability index read?
The protein stability index was 2.01.

With YISYFKTIEELQQKILCSKSENAR [Q2I] as the variant, how does the protein stability index read?
The protein stability index was 2.63.

For YKSYFKTIEELQQKILCSKSENAR [Q2K], which protein stability index is on record?
Its protein stability index is 3.17.

For YLSYFKTIEELQQKILCSKSENAR [Q2L], which protein stability index is on record?
Its protein stability index is 2.46.

Which protein stability index does the source give for YMSYFKTIEELQQKILCSKSENAR [Q2M] here?
Its protein stability index is 2.65.

For YNSYFKTIEELQQKILCSKSENAR [Q2N], which protein stability index is on record?
Its protein stability index is 2.16.

With YPSYFKTIEELQQKILCSKSENAR [Q2P] as the variant, how does the protein stability index read?
Its protein stability index is 2.77.

For YRSYFKTIEELQQKILCSKSENAR [Q2R], which protein stability index is on record?
The protein stability index was 2.63.

For YSSYFKTIEELQQKILCSKSENAR [Q2S], which protein stability index is on record?
The protein stability index was 2.22.

Which protein stability index does the source give for YTSYFKTIEELQQKILCSKSENAR [Q2T] here?
Its protein stability index is 1.76.

For YVSYFKTIEELQQKILCSKSENAR [Q2V], which protein stability index is on record?
Its protein stability index is 2.2.

For YWSYFKTIEELQQKILCSKSENAR [Q2W], which protein stability index is on record?
Its protein stability index is 2.15.

With YYSYFKTIEELQQKILCSKSENAR [Q2Y] as the variant, how does the protein stability index read?
The protein stability index was 2.16.

Which protein stability index does the source give for YQAYFKTIEELQQKILCSKSENAR [S3A] here?
Its protein stability index is 2.87.

With YQCYFKTIEELQQKILCSKSENAR [S3C] as the variant, how does the protein stability index read?
The protein stability index was 2.11.

Which protein stability index does the source give for YQDYFKTIEELQQKILCSKSENAR [S3D] here?
Its protein stability index is 2.18.

With YQEYFKTIEELQQKILCSKSENAR [S3E] as the variant, how does the protein stability index read?
Its protein stability index is 2.42.

Which protein stability index does the source give for YQFYFKTIEELQQKILCSKSENAR [S3F] here?
Its protein stability index is 1.46.

For YQGYFKTIEELQQKILCSKSENAR [S3G], which protein stability index is on record?
Its protein stability index is 1.33.

With YQHYFKTIEELQQKILCSKSENAR [S3H] as the variant, how does the protein stability index read?
The protein stability index was 1.59.

Which protein stability index does the source give for YQIYFKTIEELQQKILCSKSENAR [S3I] here?
The protein stability index was 1.67.

For YQKYFKTIEELQQKILCSKSENAR [S3K], which protein stability index is on record?
The protein stability index was 1.98.

For YQLYFKTIEELQQKILCSKSENAR [S3L], which protein stability index is on record?
The protein stability index was 1.96.

For YQMYFKTIEELQQKILCSKSENAR [S3M], which protein stability index is on record?
Its protein stability index is 1.78.

With YQNYFKTIEELQQKILCSKSENAR [S3N] as the variant, how does the protein stability index read?
Its protein stability index is 1.79.

Which protein stability index does the source give for YQPYFKTIEELQQKILCSKSENAR [S3P] here?
Its protein stability index is 2.41.

Which protein stability index does the source give for YQQYFKTIEELQQKILCSKSENAR [S3Q] here?
Its protein stability index is 2.38.

For YQRYFKTIEELQQKILCSKSENAR [S3R], which protein stability index is on record?
The protein stability index was 1.25.

With YQTYFKTIEELQQKILCSKSENAR [S3T] as the variant, how does the protein stability index read?
The protein stability index was 1.9.

For YQVYFKTIEELQQKILCSKSENAR [S3V], which protein stability index is on record?
The protein stability index was 1.6.

With YQWYFKTIEELQQKILCSKSENAR [S3W] as the variant, how does the protein stability index read?
The protein stability index was 1.79.

For YQYYFKTIEELQQKILCSKSENAR [S3Y], which protein stability index is on record?
Its protein stability index is 2.54.

Which protein stability index does the source give for YQSAFKTIEELQQKILCSKSENAR [Y4A] here?
Its protein stability index is 2.1.

Which protein stability index does the source give for YQSCFKTIEELQQKILCSKSENAR [Y4C] here?
Its protein stability index is 2.01.

Which protein stability index does the source give for YQSDFKTIEELQQKILCSKSENAR [Y4D] here?
The protein stability index was 2.34.

With YQSEFKTIEELQQKILCSKSENAR [Y4E] as the variant, how does the protein stability index read?
The protein stability index was 1.88.

For YQSFFKTIEELQQKILCSKSENAR [Y4F], which protein stability index is on record?
Its protein stability index is 1.85.

For YQSGFKTIEELQQKILCSKSENAR [Y4G], which protein stability index is on record?
Its protein stability index is 2.08.

For YQSHFKTIEELQQKILCSKSENAR [Y4H], which protein stability index is on record?
Its protein stability index is 1.81.

With YQSIFKTIEELQQKILCSKSENAR [Y4I] as the variant, how does the protein stability index read?
Its protein stability index is 1.96.

With YQSKFKTIEELQQKILCSKSENAR [Y4K] as the variant, how does the protein stability index read?
The protein stability index was 1.5.

For YQSLFKTIEELQQKILCSKSENAR [Y4L], which protein stability index is on record?
Its protein stability index is 1.92.

For YQSMFKTIEELQQKILCSKSENAR [Y4M], which protein stability index is on record?
Its protein stability index is 2.11.

For YQSNFKTIEELQQKILCSKSENAR [Y4N], which protein stability index is on record?
The protein stability index was 1.85.

Which protein stability index does the source give for YQSPFKTIEELQQKILCSKSENAR [Y4P] here?
The protein stability index was 1.73.

With YQSQFKTIEELQQKILCSKSENAR [Y4Q] as the variant, how does the protein stability index read?
The protein stability index was 1.58.

With YQSRFKTIEELQQKILCSKSENAR [Y4R] as the variant, how does the protein stability index read?
The protein stability index was 2.25.

With YQSSFKTIEELQQKILCSKSENAR [Y4S] as the variant, how does the protein stability index read?
The protein stability index was 1.54.

With YQSTFKTIEELQQKILCSKSENAR [Y4T] as the variant, how does the protein stability index read?
Its protein stability index is 1.74.

For YQSVFKTIEELQQKILCSKSENAR [Y4V], which protein stability index is on record?
Its protein stability index is 2.19.

For YQSWFKTIEELQQKILCSKSENAR [Y4W], which protein stability index is on record?
Its protein stability index is 2.97.

With YQSYAKTIEELQQKILCSKSENAR [F5A] as the variant, how does the protein stability index read?
Its protein stability index is 2.37.

For YQSYCKTIEELQQKILCSKSENAR [F5C], which protein stability index is on record?
Its protein stability index is 2.16.

With YQSYDKTIEELQQKILCSKSENAR [F5D] as the variant, how does the protein stability index read?
The protein stability index was 3.8.

For YQSYEKTIEELQQKILCSKSENAR [F5E], which protein stability index is on record?
The protein stability index was 3.79.
